# Molecular target: sdAb1 (NB07) (Artificial sequence)
# Experiment: MST; negative control; p86 says only weak interaction in phage ELISA (FIG. 4)
# Conditions: G4
# Chain of sdAb1 (NB07) (Artificial sequence) (chain, as listed by the source): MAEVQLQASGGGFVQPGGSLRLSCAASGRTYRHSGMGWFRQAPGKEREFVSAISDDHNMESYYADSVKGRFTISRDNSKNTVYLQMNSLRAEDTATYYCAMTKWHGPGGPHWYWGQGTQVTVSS
binder,measurement,value
CTGGGAGGAGCTGGGGGAGGAGA (structured_DNA) [HBV pre-core promoter G-quadruplex (WT)],binding result,no binding

# From patent US20230218656, “POLYPEPTIDES […] AGAINST VIRAL INFECTION AND USES […]” (QUADRUMIX BIOTECHNOLOGY INC., published 2023)
